Positions of bridges follow the written chain, without caps; N, C: chain ends. Non-standard residues stand in square brackets, D forms with d. Trp(1-Me) = Cn1cc(C[C@H](N)C(=O)O)c2ccccc21; NMeI = CC[C@H](C)[C@H](NC)C(=O)O; Sar = CNCC(=O)O
B1: Compound 42 (peptide)
peptide: Ac-SAICIWQDWGEHRCTEG-NH2
modifications: disulfide 4-14
SMILES: CC[C@H](C)[C@H](NC(=O)[C@H](C)NC(=O)[C@H](CO)NC(C)=O)C(=O)N[C@H]1CSSC[C@@H](C(=O)N[C@H](C(=O)N[C@@H](CCC(=O)O)C(=O)NCC(N)=O)[C@@H](C)O)NC(=O)[C@H](CCCNC(=N)N)NC(=O)[C@H](Cc2c[nH]cn2)NC(=O)[C@H](CCC(=O)O)NC(=O)CNC(=O)[C@H](Cc2c[nH]c3ccccc23)NC(=O)[C@H](CC(=O)O)NC(=O)[C@H](CCC(N)=O)NC(=O)[C@H](Cc2c[nH]c3ccccc23)NC(=O)[C@H]([C@@H](C)CC)NC1=O
B2: Compound 47 (peptide)
peptide: Ac-ICIWQDWGAHRCTGAES-NH2
modifications: disulfide 2-12
SMILES: CC[C@H](C)[C@H](NC(C)=O)C(=O)N[C@H]1CSSC[C@@H](C(=O)N[C@H](C(=O)NCC(=O)N[C@@H](C)C(=O)N[C@@H](CCC(=O)O)C(=O)N[C@@H](CO)C(N)=O)[C@@H](C)O)NC(=O)[C@H](CCCNC(=N)N)NC(=O)[C@H](Cc2c[nH]cn2)NC(=O)[C@H](C)NC(=O)CNC(=O)[C@H](Cc2c[nH]c3ccccc23)NC(=O)[C@H](CC(=O)O)NC(=O)[C@H](CCC(N)=O)NC(=O)[C@H](Cc2c[nH]c3ccccc23)NC(=O)[C@H]([C@@H](C)CC)NC1=O
B3: Compound 34 (peptide)
peptide: Ac-EICIWQDWGEHRCTEGE-NH2
modifications: disulfide 3-13
SMILES: CC[C@H](C)[C@@H]1NC(=O)[C@@H](NC(=O)[C@@H](NC(=O)[C@H](CCC(=O)O)NC(C)=O)[C@@H](C)CC)CSSC[C@@H](C(=O)N[C@H](C(=O)N[C@@H](CCC(=O)O)C(=O)NCC(=O)N[C@@H](CCC(=O)O)C(N)=O)[C@@H](C)O)NC(=O)[C@H](CCCNC(=N)N)NC(=O)[C@H](Cc2c[nH]cn2)NC(=O)[C@H](CCC(=O)O)NC(=O)CNC(=O)[C@H](Cc2c[nH]c3ccccc23)NC(=O)[C@H](CC(=O)O)NC(=O)[C@H](CCC(N)=O)NC(=O)[C@H](Cc2c[nH]c3ccccc23)NC1=O
B4: Compound 33 (peptide)
peptide: Ac-EICIWQDWGEHRCTE-NH2
modifications: disulfide 3-13
SMILES: CC[C@H](C)[C@@H]1NC(=O)[C@@H](NC(=O)[C@@H](NC(=O)[C@H](CCC(=O)O)NC(C)=O)[C@@H](C)CC)CSSC[C@@H](C(=O)N[C@H](C(=O)N[C@@H](CCC(=O)O)C(N)=O)[C@@H](C)O)NC(=O)[C@H](CCCNC(=N)N)NC(=O)[C@H](Cc2c[nH]cn2)NC(=O)[C@H](CCC(=O)O)NC(=O)CNC(=O)[C@H](Cc2c[nH]c3ccccc23)NC(=O)[C@H](CC(=O)O)NC(=O)[C@H](CCC(N)=O)NC(=O)[C@H](Cc2c[nH]c3ccccc23)NC1=O
B5: Compound 38 (peptide)
peptide: Ac-EKGICIWQDWGEHRCTEKP-NH2
modifications: disulfide 5-15
SMILES: CC[C@H](C)[C@H](NC(=O)CNC(=O)[C@H](CCCCN)NC(=O)[C@H](CCC(=O)O)NC(C)=O)C(=O)N[C@H]1CSSC[C@@H](C(=O)N[C@H](C(=O)N[C@@H](CCC(=O)O)C(=O)N[C@@H](CCCCN)C(=O)N2CCC[C@H]2C(N)=O)[C@@H](C)O)NC(=O)[C@H](CCCNC(=N)N)NC(=O)[C@H](Cc2c[nH]cn2)NC(=O)[C@H](CCC(=O)O)NC(=O)CNC(=O)[C@H](Cc2c[nH]c3ccccc23)NC(=O)[C@H](CC(=O)O)NC(=O)[C@H](CCC(N)=O)NC(=O)[C@H](Cc2c[nH]c3ccccc23)NC(=O)[C@H]([C@@H](C)CC)NC1=O
B6: Compound 46 (peptide)
peptide: Ac-ESSAICIWQDWGAHRCT-NH2
modifications: disulfide 6-16
SMILES: CC[C@H](C)[C@H](NC(=O)[C@H](C)NC(=O)[C@H](CO)NC(=O)[C@H](CO)NC(=O)[C@H](CCC(=O)O)NC(C)=O)C(=O)N[C@H]1CSSC[C@@H](C(=O)N[C@H](C(N)=O)[C@@H](C)O)NC(=O)[C@H](CCCNC(=N)N)NC(=O)[C@H](Cc2c[nH]cn2)NC(=O)[C@H](C)NC(=O)CNC(=O)[C@H](Cc2c[nH]c3ccccc23)NC(=O)[C@H](CC(=O)O)NC(=O)[C@H](CCC(N)=O)NC(=O)[C@H](Cc2c[nH]c3ccccc23)NC(=O)[C@H]([C@@H](C)CC)NC1=O
B7: Compound 30 (peptide)
peptide: Ac-EGEICIWQDWGEHRCT-NH2
modifications: disulfide 5-15
SMILES: CC[C@H](C)[C@@H]1NC(=O)[C@@H](NC(=O)[C@@H](NC(=O)[C@H](CCC(=O)O)NC(=O)CNC(=O)[C@H](CCC(=O)O)NC(C)=O)[C@@H](C)CC)CSSC[C@@H](C(=O)N[C@H](C(N)=O)[C@@H](C)O)NC(=O)[C@H](CCCNC(=N)N)NC(=O)[C@H](Cc2c[nH]cn2)NC(=O)[C@H](CCC(=O)O)NC(=O)CNC(=O)[C@H](Cc2c[nH]c3ccccc23)NC(=O)[C@H](CC(=O)O)NC(=O)[C@H](CCC(N)=O)NC(=O)[C@H](Cc2c[nH]c3ccccc23)NC1=O
B8: Compound 35 (peptide)
peptide: Ac-EGEICIWQDWGEHRCEGE-NH2
modifications: disulfide 5-15
SMILES: CC[C@H](C)[C@@H]1NC(=O)[C@@H](NC(=O)[C@@H](NC(=O)[C@H](CCC(=O)O)NC(=O)CNC(=O)[C@H](CCC(=O)O)NC(C)=O)[C@@H](C)CC)CSSC[C@@H](C(=O)N[C@@H](CCC(=O)O)C(=O)NCC(=O)N[C@@H](CCC(=O)O)C(N)=O)NC(=O)[C@H](CCCNC(=N)N)NC(=O)[C@H](Cc2c[nH]cn2)NC(=O)[C@H](CCC(=O)O)NC(=O)CNC(=O)[C@H](Cc2c[nH]c3ccccc23)NC(=O)[C@H](CC(=O)O)NC(=O)[C@H](CCC(N)=O)NC(=O)[C@H](Cc2c[nH]c3ccccc23)NC1=O
B9: Compound 36 (peptide)
peptide: Ac-ESEICIWQDWGEHRCEGE-NH2
modifications: disulfide 5-15
SMILES: CC[C@H](C)[C@@H]1NC(=O)[C@@H](NC(=O)[C@@H](NC(=O)[C@H](CCC(=O)O)NC(=O)[C@H](CO)NC(=O)[C@H](CCC(=O)O)NC(C)=O)[C@@H](C)CC)CSSC[C@@H](C(=O)N[C@@H](CCC(=O)O)C(=O)NCC(=O)N[C@@H](CCC(=O)O)C(N)=O)NC(=O)[C@H](CCCNC(=N)N)NC(=O)[C@H](Cc2c[nH]cn2)NC(=O)[C@H](CCC(=O)O)NC(=O)CNC(=O)[C@H](Cc2c[nH]c3ccccc23)NC(=O)[C@H](CC(=O)O)NC(=O)[C@H](CCC(N)=O)NC(=O)[C@H](Cc2c[nH]c3ccccc23)NC1=O
B10: Compound 37 (peptide)
peptide: Ac-KEKICIWQDWGEHRCTEKE-NH2
modifications: disulfide 5-15
SMILES: CC[C@H](C)[C@@H]1NC(=O)[C@@H](NC(=O)[C@@H](NC(=O)[C@H](CCCCN)NC(=O)[C@H](CCC(=O)O)NC(=O)[C@H](CCCCN)NC(C)=O)[C@@H](C)CC)CSSC[C@@H](C(=O)N[C@H](C(=O)N[C@@H](CCC(=O)O)C(=O)N[C@@H](CCCCN)C(=O)N[C@@H](CCC(=O)O)C(N)=O)[C@@H](C)O)NC(=O)[C@H](CCCNC(=N)N)NC(=O)[C@H](Cc2c[nH]cn2)NC(=O)[C@H](CCC(=O)O)NC(=O)CNC(=O)[C@H](Cc2c[nH]c3ccccc23)NC(=O)[C@H](CC(=O)O)NC(=O)[C@H](CCC(N)=O)NC(=O)[C@H](Cc2c[nH]c3ccccc23)NC1=O
B11: Compound 32 (peptide)
peptide: Ac-SEICIWQDWGEHRCTEA-NH2
modifications: disulfide 4-14
SMILES: CC[C@H](C)[C@@H]1NC(=O)[C@@H](NC(=O)[C@@H](NC(=O)[C@H](CCC(=O)O)NC(=O)[C@H](CO)NC(C)=O)[C@@H](C)CC)CSSC[C@@H](C(=O)N[C@H](C(=O)N[C@@H](CCC(=O)O)C(=O)N[C@@H](C)C(N)=O)[C@@H](C)O)NC(=O)[C@H](CCCNC(=N)N)NC(=O)[C@H](Cc2c[nH]cn2)NC(=O)[C@H](CCC(=O)O)NC(=O)CNC(=O)[C@H](Cc2c[nH]c3ccccc23)NC(=O)[C@H](CC(=O)O)NC(=O)[C@H](CCC(N)=O)NC(=O)[C@H](Cc2c[nH]c3ccccc23)NC1=O
B12: Compound 48 (peptide)
peptide: H-[dY]ICI[Trp(1-Me)]QDW[Sar]AHRC[NMeI]-NH2
modifications: disulfide 3-13
SMILES: CC[C@H](C)[C@H](NC(=O)[C@H](N)Cc1ccc(O)cc1)C(=O)N[C@H]1CSSC[C@@H](C(=O)N(C)[C@H](C(N)=O)[C@@H](C)CC)NC(=O)[C@H](CCCNC(=N)N)NC(=O)[C@H](Cc2c[nH]cn2)NC(=O)[C@H](C)NC(=O)CN(C)C(=O)[C@H](Cc2c[nH]c3ccccc23)NC(=O)[C@H](CC(=O)O)NC(=O)[C@H](CCC(N)=O)NC(=O)[C@H](Cc2cn(C)c3ccccc23)NC(=O)[C@H]([C@@H](C)CC)NC1=O
B13: Compound 39 (peptide)
peptide: Ac-ICIWQDWGEHRCTEGK-NH2
modifications: disulfide 2-12
SMILES: CC[C@H](C)[C@H](NC(C)=O)C(=O)N[C@H]1CSSC[C@@H](C(=O)N[C@H](C(=O)N[C@@H](CCC(=O)O)C(=O)NCC(=O)N[C@@H](CCCCN)C(N)=O)[C@@H](C)O)NC(=O)[C@H](CCCNC(=N)N)NC(=O)[C@H](Cc2c[nH]cn2)NC(=O)[C@H](CCC(=O)O)NC(=O)CNC(=O)[C@H](Cc2c[nH]c3ccccc23)NC(=O)[C@H](CC(=O)O)NC(=O)[C@H](CCC(N)=O)NC(=O)[C@H](Cc2c[nH]c3ccccc23)NC(=O)[C@H]([C@@H](C)CC)NC1=O
B14: Compound 31 (peptide)
peptide: Ac-ESEICIWQDWGEHRCT-NH2
modifications: disulfide 5-15
SMILES: CC[C@H](C)[C@@H]1NC(=O)[C@@H](NC(=O)[C@@H](NC(=O)[C@H](CCC(=O)O)NC(=O)[C@H](CO)NC(=O)[C@H](CCC(=O)O)NC(C)=O)[C@@H](C)CC)CSSC[C@@H](C(=O)N[C@H](C(N)=O)[C@@H](C)O)NC(=O)[C@H](CCCNC(=N)N)NC(=O)[C@H](Cc2c[nH]cn2)NC(=O)[C@H](CCC(=O)O)NC(=O)CNC(=O)[C@H](Cc2c[nH]c3ccccc23)NC(=O)[C@H](CC(=O)O)NC(=O)[C@H](CCC(N)=O)NC(=O)[C@H](Cc2c[nH]c3ccccc23)NC1=O

Biological target: Human C3 (human, UniProt P01024 23-1663)
Assay: cell-based or functional assay

Sequence of Human C3 (P01024 23-1663 limits assumed): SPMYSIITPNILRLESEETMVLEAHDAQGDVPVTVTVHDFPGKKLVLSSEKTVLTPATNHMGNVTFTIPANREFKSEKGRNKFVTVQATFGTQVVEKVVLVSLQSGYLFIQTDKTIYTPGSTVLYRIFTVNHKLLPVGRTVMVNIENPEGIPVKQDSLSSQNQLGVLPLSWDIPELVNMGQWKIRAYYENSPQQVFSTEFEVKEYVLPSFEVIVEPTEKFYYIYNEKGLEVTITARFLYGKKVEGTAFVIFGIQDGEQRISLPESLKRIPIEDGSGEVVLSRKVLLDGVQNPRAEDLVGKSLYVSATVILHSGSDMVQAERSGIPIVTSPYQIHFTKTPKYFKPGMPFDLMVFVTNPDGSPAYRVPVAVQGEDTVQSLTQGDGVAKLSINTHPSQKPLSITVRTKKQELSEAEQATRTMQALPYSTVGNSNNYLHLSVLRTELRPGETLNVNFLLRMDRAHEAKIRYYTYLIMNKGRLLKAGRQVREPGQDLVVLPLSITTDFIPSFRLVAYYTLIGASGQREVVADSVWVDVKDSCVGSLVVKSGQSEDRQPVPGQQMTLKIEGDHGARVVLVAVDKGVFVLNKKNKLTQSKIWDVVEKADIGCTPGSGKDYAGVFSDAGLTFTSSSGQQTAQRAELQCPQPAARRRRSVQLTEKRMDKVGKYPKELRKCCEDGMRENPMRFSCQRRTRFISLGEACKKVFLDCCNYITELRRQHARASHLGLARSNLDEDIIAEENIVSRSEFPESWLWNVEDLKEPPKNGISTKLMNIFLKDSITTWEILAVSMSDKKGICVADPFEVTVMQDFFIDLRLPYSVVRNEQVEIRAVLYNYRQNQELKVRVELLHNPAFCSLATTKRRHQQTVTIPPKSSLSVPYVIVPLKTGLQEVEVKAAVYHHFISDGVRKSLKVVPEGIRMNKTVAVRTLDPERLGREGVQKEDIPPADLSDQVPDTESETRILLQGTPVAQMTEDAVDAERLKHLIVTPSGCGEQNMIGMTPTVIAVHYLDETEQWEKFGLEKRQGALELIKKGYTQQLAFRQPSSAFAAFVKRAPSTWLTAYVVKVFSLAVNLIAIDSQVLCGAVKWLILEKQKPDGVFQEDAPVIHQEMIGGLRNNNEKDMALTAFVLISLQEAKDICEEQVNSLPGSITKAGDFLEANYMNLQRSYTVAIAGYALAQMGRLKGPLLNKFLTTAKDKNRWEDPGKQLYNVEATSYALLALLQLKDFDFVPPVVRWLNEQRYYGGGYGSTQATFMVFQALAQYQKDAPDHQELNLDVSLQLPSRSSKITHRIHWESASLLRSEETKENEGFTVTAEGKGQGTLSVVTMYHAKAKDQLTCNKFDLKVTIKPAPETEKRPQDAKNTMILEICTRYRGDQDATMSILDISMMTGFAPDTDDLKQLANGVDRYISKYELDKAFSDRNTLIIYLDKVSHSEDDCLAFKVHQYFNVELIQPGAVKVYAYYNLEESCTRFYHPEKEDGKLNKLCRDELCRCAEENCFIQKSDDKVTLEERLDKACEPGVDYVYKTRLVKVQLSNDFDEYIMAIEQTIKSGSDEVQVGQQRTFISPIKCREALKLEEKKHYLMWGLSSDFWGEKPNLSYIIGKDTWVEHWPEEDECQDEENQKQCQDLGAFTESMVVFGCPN

Row | Binder | IC50[nM], inhibition of hemolysis [nM]
1 | B1 | < 250
2 | B2 | < 100
3 | B3 | < 250
4 | B4 | < 100
5 | B5 | < 250
6 | B6 | < 100
7 | B7 | < 100
8 | B8 | < 500
9 | B9 | < 250
10 | B10 | < 250
11 | B11 | < 100
12 | B12 | < 100
13 | B13 | < 100
14 | B14 | < 100
